The subject of data set [1] is PTB1 C4 C250S;C251S;E518C;del1-55, P26599-1. The experiment in a line: filter binding. The following applies: Filter binding: 5 mM Hepes pH 7.4, 100 mM KCl, 3 mM MgCl2, 5% glycerol, 75 ug/ml yeast tRNA, 75 ug/ml BSA, 0.5 mM DTT, room temp; probing: 20 mM HEPES-KOH pH 7.
The target in another data set is PTB-GFP (UniProt P26599). The experiment in a line: single-molecule TIRF. The following applies: Filter binding: 5 mM Hepes pH 7.4, 100 mM KCl, 3 mM MgCl2, 5% glycerol, 75 ug/ml yeast tRNA, 75 ug/ml BSA, 0.5 mM DTT, room temp, probing: 20 mM HEPES-KOH pH 7.
Chain of PTB-GFP (P26599 whole entry): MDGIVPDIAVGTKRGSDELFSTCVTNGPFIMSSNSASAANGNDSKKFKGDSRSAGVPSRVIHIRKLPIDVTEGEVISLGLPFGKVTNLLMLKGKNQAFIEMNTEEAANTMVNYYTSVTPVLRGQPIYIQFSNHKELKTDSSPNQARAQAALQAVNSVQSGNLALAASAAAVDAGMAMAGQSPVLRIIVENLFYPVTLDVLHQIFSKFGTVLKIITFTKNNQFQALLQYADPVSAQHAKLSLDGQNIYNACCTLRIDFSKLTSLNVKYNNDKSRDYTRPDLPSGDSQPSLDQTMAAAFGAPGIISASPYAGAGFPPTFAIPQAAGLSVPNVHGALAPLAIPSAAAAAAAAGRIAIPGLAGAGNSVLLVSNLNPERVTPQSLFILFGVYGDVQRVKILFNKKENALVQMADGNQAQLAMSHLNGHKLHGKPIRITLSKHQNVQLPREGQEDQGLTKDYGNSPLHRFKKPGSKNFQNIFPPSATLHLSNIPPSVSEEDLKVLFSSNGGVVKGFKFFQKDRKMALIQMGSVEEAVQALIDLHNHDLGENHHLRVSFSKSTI
Data set [2] has as its system PTB1 C3mC4m C250S;C251S;E518C;del1-55, P26599-1. As to the kind of experiment: filter binding. As to conditions: Filter binding: 5 mM Hepes pH 7.4, 100 mM KCl, 3 mM MgCl2, 5% glycerol, 75 ug/ml yeast tRNA, 75 ug/ml BSA, 0.5 mM DTT, room temp; probing: 20 mM HEPES-KOH pH 7.
Data set [3] concerns PTB1 C4m C250S;C251S;E518C;del1-55, P26599-1. The experiment in a line: filter binding. As to conditions: Filter binding: 5 mM Hepes pH 7.4, 100 mM KCl, 3 mM MgCl2, 5% glycerol, 75 ug/ml yeast tRNA, 75 ug/ml BSA, 0.5 mM DTT, room temp; probing: 20 mM HEPES-KOH pH 7.
Chain of PTB1 C4m C250S;C251S;E518C;del1-55, P26599-1 (P26599 other isoform, or with tags, fused parts or gaps C250S C251S E518C): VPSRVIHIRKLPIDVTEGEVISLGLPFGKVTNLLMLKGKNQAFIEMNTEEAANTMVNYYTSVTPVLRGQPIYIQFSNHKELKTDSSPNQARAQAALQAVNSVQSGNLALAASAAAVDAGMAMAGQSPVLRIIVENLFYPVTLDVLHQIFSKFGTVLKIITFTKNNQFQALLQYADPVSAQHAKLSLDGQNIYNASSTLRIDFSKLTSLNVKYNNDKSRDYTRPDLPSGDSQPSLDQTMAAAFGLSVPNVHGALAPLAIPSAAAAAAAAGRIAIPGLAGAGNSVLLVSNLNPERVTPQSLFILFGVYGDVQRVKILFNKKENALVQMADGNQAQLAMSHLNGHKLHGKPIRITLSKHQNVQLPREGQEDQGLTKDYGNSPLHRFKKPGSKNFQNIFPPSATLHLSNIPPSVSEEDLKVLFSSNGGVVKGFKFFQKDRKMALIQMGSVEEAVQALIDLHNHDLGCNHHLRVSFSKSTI
Data set [4] deals with PTB1 C1C2m C250S;C251S;Q124C;D284C;I214S;F216A;K218S;del1-55, P26599-1. As to the kind of experiment: filter binding. The following applies: Filter binding: 5 mM Hepes pH 7.4, 100 mM KCl, 3 mM MgCl2, 5% glycerol, 75 ug/ml yeast tRNA, 75 ug/ml BSA, 0.5 mM DTT, room temp; probing: 20 mM HEPES-KOH pH 7.
Chain of PTB1 C1C2m C250S;C251S;Q124C;D284C;I214S;F216A;K218S;del1-55, P26599-1 (P26599 other isoform, or with tags, fused parts or gaps C250S C251S Q124C D284C I214S F216A K218S): as the sequence (P26599 other isoform, or with tags, fused parts or gaps C250S C251S E518C) above, with Q69C, I159S, F161A, K163S, D229C, C463E counted along it
In data set [5] the test system is PTB1 C3C4m C250S;C251S;E518C;del1-55, P26599-1. The experiment in a line: filter binding. The following applies: Filter binding: 5 mM Hepes pH 7.4, 100 mM KCl, 3 mM MgCl2, 5% glycerol, 75 ug/ml yeast tRNA, 75 ug/ml BSA, 0.5 mM DTT, room temp; probing: 20 mM HEPES-KOH pH 7.
Chain of PTB1 C3C4m C250S;C251S;E518C;del1-55, P26599-1 (P26599 other isoform, or with tags, fused parts or gaps C250S C251S E518C): as the sequence (P26599 other isoform, or with tags, fused parts or gaps C250S C251S E518C) above
The test system of data set [6] is PTB1 C4pack C250S;C251S;E518C;E502K;V505E;I509K;del1-55, P26599-1. As to the kind of experiment: filter binding. The following applies: Filter binding: 5 mM Hepes pH 7.4, 100 mM KCl, 3 mM MgCl2, 5% glycerol, 75 ug/ml yeast tRNA, 75 ug/ml BSA, 0.5 mM DTT, room temp; probing: 20 mM HEPES-KOH pH 7.
Chain of PTB1 C4pack C250S;C251S;E518C;E502K;V505E;I509K;del1-55, P26599-1 (P26599 other isoform, or with tags, fused parts or gaps C250S C251S E518C E502K V505E I509K): as the sequence (P26599 other isoform, or with tags, fused parts or gaps C250S C251S E518C) above, with E447K, V450E, I454K counted along it
In data set [7] the test system is PTB1 C3C4 C250S;C251S;E518C;del1-55, P26599-1. The experiment in a line: filter binding. The following applies: Filter binding: 5 mM Hepes pH 7.4, 100 mM KCl, 3 mM MgCl2, 5% glycerol, 75 ug/ml yeast tRNA, 75 ug/ml BSA, 0.5 mM DTT, room temp; probing: 20 mM HEPES-KOH pH 7.
Chain of PTB1 C3C4 C250S;C251S;E518C;del1-55, P26599-1 (P26599 other isoform, or with tags, fused parts or gaps C250S C251S E518C): as the sequence (P26599 other isoform, or with tags, fused parts or gaps C250S C251S E518C) above
The subject of data set [8] is PTB1 C1mC2m C250S;C251S;Q124C;D284C;I214S;F216A;K218S;del1-55, P26599-1. As to the kind of experiment: filter binding. As to conditions: Filter binding: 5 mM Hepes pH 7.4, 100 mM KCl, 3 mM MgCl2, 5% glycerol, 75 ug/ml yeast tRNA, 75 ug/ml BSA, 0.5 mM DTT, room temp; probing: 20 mM HEPES-KOH pH 7.
Data set [9] relates to PTB1 C1C2 C250S;C251S;Q124C;D284C;del1-55, P26599-1. As to the kind of experiment: filter binding. As to conditions: Filter binding: 5 mM Hepes pH 7.4, 100 mM KCl, 3 mM MgCl2, 5% glycerol, 75 ug/ml yeast tRNA, 75 ug/ml BSA, 0.5 mM DTT, room temp; probing: 20 mM HEPES-KOH pH 7.
Chain of PTB1 C1C2 C250S;C251S;Q124C;D284C;del1-55, P26599-1 (P26599 other isoform, or with tags, fused parts or gaps C250S C251S Q124C D284C): as the sequence (P26599 other isoform, or with tags, fused parts or gaps C250S C251S E518C) above, with Q69C, D229C, C463E counted along it
The test system of data set [10] is PTB1 LmC4 C250S;C251S;E518C;K439A;K440A;del1-55, P26599-1. As to the kind of experiment: filter binding. As to conditions: Filter binding: 5 mM Hepes pH 7.4, 100 mM KCl, 3 mM MgCl2, 5% glycerol, 75 ug/ml yeast tRNA, 75 ug/ml BSA, 0.5 mM DTT, room temp; probing: 20 mM HEPES-KOH pH 7.
Chain of PTB1 LmC4 C250S;C251S;E518C;K439A;K440A;del1-55, P26599-1 (P26599 other isoform, or with tags, fused parts or gaps C250S C251S E518C K439A K440A): as the sequence (P26599 other isoform, or with tags, fused parts or gaps C250S C251S E518C) above, with K384A, K385A counted along it
In data set [11] the test system is PTB1 C1mC2 C250S;C251S;Q124C;D284C;del1-55, P26599-1. The experiment in a line: filter binding. As to conditions: Filter binding: 5 mM Hepes pH 7.4, 100 mM KCl, 3 mM MgCl2, 5% glycerol, 75 ug/ml yeast tRNA, 75 ug/ml BSA, 0.5 mM DTT, room temp; probing: 20 mM HEPES-KOH pH 7.
Chain of PTB1 C1mC2 C250S;C251S;Q124C;D284C;del1-55, P26599-1 (P26599 other isoform, or with tags, fused parts or gaps C250S C251S Q124C D284C): as the sequence (P26599 other isoform, or with tags, fused parts or gaps C250S C251S E518C) above, with Q69C, D229C, C463E counted along it
The subject of data set [12] is PTB1 C3mC4 C250S;C251S;E518C;del1-55, P26599-1. As to the kind of experiment: filter binding. As to conditions: Filter binding: 5 mM Hepes pH 7.4, 100 mM KCl, 3 mM MgCl2, 5% glycerol, 75 ug/ml yeast tRNA, 75 ug/ml BSA, 0.5 mM DTT, room temp; probing: 20 mM HEPES-KOH pH 7.

A word on the Kd: it is the equilibrium constant for the complex coming apart. Read a low Kd as a tighter complex.

Chain of PTB1 C4 C250S;C251S;E518C;del1-55, P26599-1 (P26599 other isoform, or with tags, fused parts or gaps C250S C251S E518C): as the sequence (P26599 other isoform, or with tags, fused parts or gaps C250S C251S E518C) above
Chain of PTB1 C3mC4m C250S;C251S;E518C;del1-55, P26599-1 (P26599 other isoform, or with tags, fused parts or gaps C250S C251S E518C): as above
Chain of PTB1 C3mC4 C250S;C251S;E518C;del1-55, P26599-1 (P26599 other isoform, or with tags, fused parts or gaps C250S C251S E518C): as above
Chain of PTB1 C1mC2m C250S;C251S;Q124C;D284C;I214S;F216A;K218S;del1-55, P26599-1 (P26599 other isoform, or with tags, fused parts or gaps C250S C251S Q124C D284C I214S F216A K218S): as the sequence (P26599 other isoform, or with tags, fused parts or gaps C250S C251S E518C) above, with Q69C, I159S, F161A, K163S, D229C, C463E counted along it

Substance “AUGUGAACAUGGAAUCAUCAAGGAAUGCACACUCACCAGCAACACCAAGUGCAAAGAGGAAGGUAAUUAUUUUUUUACGGUUAUAUUCUCCUUUCCCCCAACCCCAUGGAAAGAUGUGAAGAAAAACCAAUCACUCUUGAUUACUAGAAAGUCCUUUAUUUAAUCUUAAAGAUUGCUUAUUUUCAUAUAAAAUGUCCAAUGUUCCAACCUACAGGAUCCAGAUCUAACUUGGGGUGGCAAUGCACACUCACCAGGCCAAUUCCACUAAUUGUUUGGGGUAAGUUCUUGCUUUGUUCAAACUGCAGAUUGAAAUAACUUGGGAAGUAGGUGUGAAAGUAUGUUCUCACAUGCAUUCUACAAGGCUGAGACCUGAGUUGAUAAAAUUUCUUUGUUCUUUCAGUGAAGAGAAAGGAAGUACAGAAAACAUGCAGAAAGCACAGAAAGGAA [FAS m0 mutant RNA]” had a Kd in [1] of 7.5 nM. In addition, the binding signal (% RNA with bound PTB-GFP) with PTB-GFP amounted to 2.9.

Regarding “AUGUGAACAUGGAAUCAUCAAGGAAUGCACACUCACCAGCAACACCAAGUGCAAAGAGGAAGGUAAUUAUUUUUUUACGGUUAUAUUCUCCUUUCCCCCAACCCCAUGGAAAGAUGUGAAGAAAAACCAAUCACUCUUGAUUACUAGAAAGUCCUUUAUUUAAUCUUAAAGAUUGCUUAUUUUCAUAUAAAAUGUCCAAUGUUCCAACCUACAGGAUCCAGAUCUAACUUGGGGUGGCUUUGUCUUCUUCUUUUGCCAAUUCCACUAAUUGUUUGGGGUAAGUUCUUGCUUUGUUCAAACUGCAGAUUGAAAUAACUUGGGAAGUAGGUGUGAAAGUAUGUUCUCACAUGCAUUCUACAAGGCUGAGACCUGAGUUGAUAAAAUUUCUUUGUUCUUUCAGUGAAGAGAAAGGAAGUACAGAAAACAUGCAGAAAGCACAGAAAGGAA [FAS WT RNA (exon 5-6-7)]”, the Kd was 24.6 nM in [2]; 29.9 nM in data set [3]; 10.3 nM in data set [1]; 15.3 nM in data set [4]; 22.9 nM in data set [5]; 6.3 nM in [6]. For the same substance, the Kd was 14.7 nM in [7]; 12.3 nM in data set [8]; 10.1 nM in data set [9]; 14.2 nM in data set [10]; 11.6 nM in data set [11]; 16.5 nM in data set [12]. Besides, the Kd in the data set with PTB-GFP (average Kd, 3-4 PTB sites, 2.6% of RNA with bound PTB-GFP, nuclear extract) was found to be 20 nM.

Tpm1 RNA yielded a binding signal (% RNA with bound PTB-GFP) with PTB-GFP of 7.9.

The record behind these values is publication PMC4117754.
